Assay results taken from patent publication US20080286277A1 (GLYCART BIOTECHNOLOGY, published 2008).

Assays:
[1] = target: T1, human epidermal growth factor receptor (EGFR) (human, UniProt P00533 25-1210); test: flow cytometry on A431 cells, heavy chain paired with I-KC
T1 construct: whole, on cells; also called HER-1; ErbB1

[2] = target: T1, human epidermal growth factor receptor …; test: flow cytometry on A431 cells, light chain paired with I-HHD

| binding result [1] | binding result [2] | Binder |
| --- | --- | --- |
| binds | – | humanized ICR62 antibody I-HHD-1/I-KC (antibody, human IgG1, V domains shown) VH: QVQLVQSGAEVKKPGSSVKVSCKASGGTFTDYKIHWVRQAPGQGLEWMGYFNPNSGYSTYAQKFQGRVTITADKSTSTAYMELSSLRSEDTAVYYCARLSPGGYYVMDAWGQGTTVTVSS VL: DIQMTQSPSSLSASVGDRVTITCRASQGINNYLNWYQQKPGKAPKRLIYNTNNLQTGVPSRFSGSGSGTEFTLTISSLQPEDFATYYCLQHNSFPTFGQGTKLEIKR |
| binds | – | humanized ICR62 antibody I-HHD-2/I-KC (antibody, human IgG1, V domains shown) VH: QVQLVQSGAEVKKPGSSVKVSCKASGFSFTDYKIHWVRQAPGQGLEWMGYFNPNSGYSTYAQKFQGRVTITADKSTSTAYMELSSLRSEDTAVYYCARLSPGGYYVMDAWGQGTTVTVSS VL: DIQMTQSPSSLSASVGDRVTITCRASQGINNYLNWYQQKPGKAPKRLIYNTNNLQTGVPSRFSGSGSGTEFTLTISSLQPEDFATYYCLQHNSFPTFGQGTKLEIKR |
| binds | – | humanized ICR62 antibody I-HHD-6/I-KC (antibody, human IgG1, V domains shown) VH: QVQLVQSGAEVKKPGSSVKVSCKASGFTFTDYKIHWVRQAPGQGLEWMGYFNANSGYSTYAQKFQGRVTITADKSTSTAYMELSSLRSEDTAVYYCARLSPGGYYVMDAWGQGTTVTVSS VL: DIQMTQSPSSLSASVGDRVTITCRASQGINNYLNWYQQKPGKAPKRLIYNTNNLQTGVPSRFSGSGSGTEFTLTISSLQPEDFATYYCLQHNSFPTFGQGTKLEIKR |
| – | binds | humanized ICR62 antibody I-HHD/I-KC4 (antibody, human IgG1, V domains shown) VH: QVQLVQSGAEVKKPGSSVKVSCKASGFTFTDYKIHWVRQAPGQGLEWMGYFNPNSGYSTYAQKFQGRVTITADKSTSTAYMELSSLRSEDTAVYYCARLSPGGYYVMDAWGQGTTVTVSS VL: DIQMTQSPSSLSASVGDRVTITCRASQGINNYLNWYQQKPGKAPKRLIYTTNNLQTGVPSRFSGSGSGTEFTLTISSLQPEDFATYYCLQHNSFPTFGQGTKLEIKR |
| binds | – | humanized ICR62 antibody I-HHD-9/I-KC (antibody, human IgG1, V domains shown) VH: QVQLVQSGAEVKKPGSSVKVSCKASGFTFTDYKIHWVRQAPGQGLEWMGYFNPNSGYATYAQKFQGRVTITADKSTSTAYMELSSLRSEDTAVYYCARLSPGGYYVMDAWGQGTTVTVSS VL: DIQMTQSPSSLSASVGDRVTITCRASQGINNYLNWYQQKPGKAPKRLIYNTNNLQTGVPSRFSGSGSGTEFTLTISSLQPEDFATYYCLQHNSFPTFGQGTKLEIKR |
| binds | – | humanized ICR62 antibody I-HHD-7/I-KC (antibody, human IgG1, V domains shown) VH: QVQLVQSGAEVKKPGSSVKVSCKASGFTFTDYKIHWVRQAPGQGLEWMGYFNPISGYSTYAQKFQGRVTITADKSTSTAYMELSSLRSEDTAVYYCARLSPGGYYVMDAWGQGTTVTVSS VL: DIQMTQSPSSLSASVGDRVTITCRASQGINNYLNWYQQKPGKAPKRLIYNTNNLQTGVPSRFSGSGSGTEFTLTISSLQPEDFATYYCLQHNSFPTFGQGTKLEIKR |
| – | binds | humanized ICR62 antibody I-HHD/I-KC7 (antibody, human IgG1, V domains shown) VH: QVQLVQSGAEVKKPGSSVKVSCKASGFTFTDYKIHWVRQAPGQGLEWMGYFNPNSGYSTYAQKFQGRVTITADKSTSTAYMELSSLRSEDTAVYYCARLSPGGYYVMDAWGQGTTVTVSS VL: DIQMTQSPSSLSASVGDRVTITCRASQGINNYLNWYQQKPGKAPKRLIYNTNSLQTGVPSRFSGSGSGTEFTLTISSLQPEDFATYYCLQHNSFPTFGQGTKLEIKR |
| – | binds | humanized ICR62 antibody I-HHD/I-KC6 (antibody, human IgG1, V domains shown) VH: QVQLVQSGAEVKKPGSSVKVSCKASGFTFTDYKIHWVRQAPGQGLEWMGYFNPNSGYSTYAQKFQGRVTITADKSTSTAYMELSSLRSEDTAVYYCARLSPGGYYVMDAWGQGTTVTVSS VL: DIQMTQSPSSLSASVGDRVTITCRASQGINNYLNWYQQKPGKAPKRLIYNTSNLQTGVPSRFSGSGSGTEFTLTISSLQPEDFATYYCLQHNSFPTFGQGTKLEIKR |
| binds | – | humanized ICR62 antibody I-HHD-4/I-KC (antibody, human IgG1, V domains shown) VH: QVQLVQSGAEVKKPGSSVKVSCKASGFTFTEYKIHWVRQAPGQGLEWMGYFNPNSGYSTYAQKFQGRVTITADKSTSTAYMELSSLRSEDTAVYYCARLSPGGYYVMDAWGQGTTVTVSS VL: DIQMTQSPSSLSASVGDRVTITCRASQGINNYLNWYQQKPGKAPKRLIYNTNNLQTGVPSRFSGSGSGTEFTLTISSLQPEDFATYYCLQHNSFPTFGQGTKLEIKR |
| – | binds | humanized ICR62 antibody I-HHD/I-KC8 (antibody, human IgG1, V domains shown) VH: QVQLVQSGAEVKKPGSSVKVSCKASGFTFTDYKIHWVRQAPGQGLEWMGYFNPNSGYSTYAQKFQGRVTITADKSTSTAYMELSSLRSEDTAVYYCARLSPGGYYVMDAWGQGTTVTVSS VL: DIQMTQSPSSLSASVGDRVTITCRASQGINNYLNWYQQKPGKAPKRLIYNTNNLQSGVPSRFSGSGSGTEFTLTISSLQPEDFATYYCLQHNSFPTFGQGTKLEIKR |
| – | binds | humanized ICR62 antibody I-HHD/I-KC5 (antibody, human IgG1, V domains shown) VH: QVQLVQSGAEVKKPGSSVKVSCKASGFTFTDYKIHWVRQAPGQGLEWMGYFNPNSGYSTYAQKFQGRVTITADKSTSTAYMELSSLRSEDTAVYYCARLSPGGYYVMDAWGQGTTVTVSS VL: DIQMTQSPSSLSASVGDRVTITCRASQGINNYLNWYQQKPGKAPKRLIYNANNLQTGVPSRFSGSGSGTEFTLTISSLQPEDFATYYCLQHNSFPTFGQGTKLEIKR |
| – | binds | humanized ICR62 antibody I-HHD/I-KC9 (antibody, human IgG1, V domains shown) VH: QVQLVQSGAEVKKPGSSVKVSCKASGFTFTDYKIHWVRQAPGQGLEWMGYFNPNSGYSTYAQKFQGRVTITADKSTSTAYMELSSLRSEDTAVYYCARLSPGGYYVMDAWGQGTTVTVSS VL: DIQMTQSPSSLSASVGDRVTITCRASQGINNYLNWYQQKPGKAPKRLIYNTNNLQTGVPSRFSGSGSGTEFTLTISSLQPEDFATYYCLQHNSYPTFGQGTKLEIKR |
| binds | – | humanized ICR62 antibody I-HHD-11/I-KC (antibody, human IgG1, V domains shown) VH: QVQLVQSGAEVKKPGSSVKVSCKASGFTFTDYKIHWVRQAPGQGLEWMGYFNPNSGYSTYAQKFQGRVTITADKSTSTAYMELSSLRSEDTAVYYCARLSPGGYYVMDVWGQGTTVTVSS VL: DIQMTQSPSSLSASVGDRVTITCRASQGINNYLNWYQQKPGKAPKRLIYNTNNLQTGVPSRFSGSGSGTEFTLTISSLQPEDFATYYCLQHNSFPTFGQGTKLEIKR |
